Measurements as given in patent publication US20230031670, “METHOD AND KIT FOR DETECTION OF POLYNUCLEOTIDE” (Counci of Scientific & Industrial Research, published 2023).

Key:
Settings in all cases: tags: GFP; Ni-NTA purified
[1] = molecular target: T1, dFnCas9-GFP (Francisella novicida, UniProt A0Q5Y3 SEQ:272-1899); assay: MST; low Kd, value in figure only; 30 bp dsDNA, 10 mM MgCl2
T1 chain: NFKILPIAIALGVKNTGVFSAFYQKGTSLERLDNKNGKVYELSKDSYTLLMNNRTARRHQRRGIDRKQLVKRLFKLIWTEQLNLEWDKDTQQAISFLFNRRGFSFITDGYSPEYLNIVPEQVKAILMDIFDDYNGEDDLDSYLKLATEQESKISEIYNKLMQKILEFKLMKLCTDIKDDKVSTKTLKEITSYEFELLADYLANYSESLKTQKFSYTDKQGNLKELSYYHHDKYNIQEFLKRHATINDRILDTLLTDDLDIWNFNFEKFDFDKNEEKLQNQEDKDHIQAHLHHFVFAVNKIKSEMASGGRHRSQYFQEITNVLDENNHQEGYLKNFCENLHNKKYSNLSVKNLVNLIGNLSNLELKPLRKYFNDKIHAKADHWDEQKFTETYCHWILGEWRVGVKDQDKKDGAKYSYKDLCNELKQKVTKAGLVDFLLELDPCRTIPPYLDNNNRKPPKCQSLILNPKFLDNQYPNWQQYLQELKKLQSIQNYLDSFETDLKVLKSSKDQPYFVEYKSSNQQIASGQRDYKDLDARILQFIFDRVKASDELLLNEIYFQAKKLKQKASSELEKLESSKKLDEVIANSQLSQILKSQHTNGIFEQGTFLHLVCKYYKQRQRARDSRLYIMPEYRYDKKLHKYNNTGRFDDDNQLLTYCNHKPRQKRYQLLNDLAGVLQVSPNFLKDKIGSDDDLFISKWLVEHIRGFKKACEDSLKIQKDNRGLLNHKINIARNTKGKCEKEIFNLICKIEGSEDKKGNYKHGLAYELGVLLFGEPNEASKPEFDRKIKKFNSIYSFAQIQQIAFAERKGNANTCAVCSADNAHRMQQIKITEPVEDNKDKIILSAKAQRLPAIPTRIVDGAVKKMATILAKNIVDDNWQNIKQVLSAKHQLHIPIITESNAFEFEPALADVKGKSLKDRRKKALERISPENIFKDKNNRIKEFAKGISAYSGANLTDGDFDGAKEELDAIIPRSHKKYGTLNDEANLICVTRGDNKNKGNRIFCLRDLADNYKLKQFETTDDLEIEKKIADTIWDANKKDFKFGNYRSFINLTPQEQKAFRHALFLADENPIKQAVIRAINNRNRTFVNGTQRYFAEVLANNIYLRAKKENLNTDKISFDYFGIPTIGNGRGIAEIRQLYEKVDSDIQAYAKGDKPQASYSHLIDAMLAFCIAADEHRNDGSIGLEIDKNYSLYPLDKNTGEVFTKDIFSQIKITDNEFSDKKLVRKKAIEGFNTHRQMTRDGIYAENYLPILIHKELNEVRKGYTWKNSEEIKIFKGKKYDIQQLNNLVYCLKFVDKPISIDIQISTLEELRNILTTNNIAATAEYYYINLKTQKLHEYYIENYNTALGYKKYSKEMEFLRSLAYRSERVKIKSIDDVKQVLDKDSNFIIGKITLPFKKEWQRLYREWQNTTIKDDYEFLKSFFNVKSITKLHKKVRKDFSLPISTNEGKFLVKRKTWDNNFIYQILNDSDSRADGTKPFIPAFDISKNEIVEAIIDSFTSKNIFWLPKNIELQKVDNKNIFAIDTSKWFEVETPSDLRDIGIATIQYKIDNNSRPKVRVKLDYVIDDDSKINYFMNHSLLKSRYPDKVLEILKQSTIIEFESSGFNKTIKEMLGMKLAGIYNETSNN
Protocol: (§1) MST was performed as reported previously [Dong, D. et al. The crystal structure of Cpfl in complex with CRISPR RNA. Nature (2016); Wienken, C. J., Baaske, P., Rothbauer, U., Braun, D. & Duhr, S. Protein-binding assays in biological liquids using microscale thermophoresis. Nat. Commun. (2010)]. Briefly, dFnCAS9-GFP (SEQ ID NO: 3) protein was complexed with PAGE purified respective IVT sgRNAs (purified by 12% Urea-PAGE). The binding affinities of the CAS9 proteins and sgRNA RNP complexes were calculated using Monolith NT. 115 (NanoTemper Technologies GmbH, Munich, Germany). RNP complex (Protein:sgRNA molar ratio,1:1) was reconstituted at 25° C. for 10 mins in reaction buffer (20 mM HEPES, pH7.5, 150 mM KCl, 1 mM DTT, 10 mM MgCl₂). HPLC purified 30 bp dsDNA (IDT) of different genomic loci with varying concentrations (ranging from 0.09 nM to 30,t/M) were incubated with RNP complex at 37° C. temperature for 30 min in reaction buffer. The sample was loaded into NanoTemper standard treated capillaries and measurements were performed at 25° C. using 20% LED power and 40% MST power. Data analyses were done using NanoTemper analysis software.

[2] = molecular target: T1, dFnCas9-GFP; assay: MST; no binding seen
Protocol: as §1

[3] = molecular target: T1, dFnCas9-GFP; assay: MST; SEQ ID NO 33 mismatches at 2 and 6; no binding seen
Protocol: as §1

B1: HBB WT sgRNA (FnCas9) ; HBB WT target (ssRNA ; dsDNA)
RNA: GUAACGGCAGACUUCUCCUCAGGGUUUCAGUUGCGCCGAAAGGCGCUCUGUAAUCAUUUAAAAGUAUUUUGAACGGACCUCUGUUUGACACGUCUG
DNA 1: GTAACGGCAGACTTCTCCTC
DNA 2: GAGGAGAAGTCTGCCGTTAC
B1: binds [1].

B2: HBB WT sgRNA (FnCas9) ; HBB mismatched target 1 (ssRNA ; dsDNA)
RNA: GUAACGGCAGACUUCUCCUCAGGGUUUCAGUUGCGCCGAAAGGCGCUCUGUAAUCAUUUAAAAGUAUUUUGAACGGACCUCUGUUUGACACGUCUG
DNA 1: GAAGAAAAGTCTGCCGTTAC
DNA 2: GTAACGGCAGACTTTTCTTC
B2: no binding [2].

B3: HBB sgRNA with mismatches at PAM-proximal 2 and 6 (FnCas9) ; HBB WT target (ssRNA ; dsDNA)
RNA: GUAACGGCAGACUUAUCCACAGGGUUUCAGUUGCGCCGAAAGGCGCUCUGUAAUCAUUUAAAAGUAUUUUGAACGGACCUCUGUUUGACACGUCUG
DNA 1: GTAACGGCAGACTTCTCCTC
DNA 2: GAGGAGAAGTCTGCCGTTAC
B3: no binding [3].
